Test results taken from the nanobody polyreactivity screen of Harvey et al. (2022).

Experiment: yeast display, Sf9 membrane polyspecificity reagent, FACS + sequencing; frameworks hold sequencing errors
Procedure, shortened: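 Synthetic nanobody libraries on Saccharomyces cerevisiae BJ5465 were galactose-induced for 36–48 hours, stained 1 hour at 4 °C with 10% biotinylated, detergent-solubilized Sf9 membrane reagent and enriched on streptavidin microbeads. FACS then separated cells into low and high (top ~1%) gates by anti-HA (expression) and streptavidin (reagent binding) fluorescence. Genes were colony-PCR amplified, MiSeq 2 × 250 sequenced and CDR-length filtered. A clone's polyreactivity label is that of its gate of origin.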

Which “polyreactivity (PSR sort gate)” value does the source give for “QVQLVESGGGLVQAGGSLRLSCAASGSTFDYNAMGWYRQAPGKERELVAAITSTGGNTYYADSVKGRFTISRDHAKNTDYLQMNSLKPEDTAVYYCNKDVARYPYGNFDYWGQGTQVTVSS” here?
The value was “low polyreactivity”.

For “QVQLVESGGGLVQAGGSLRLSCAASGSTFDYNAMGWYRQAPGKERELVADITGSGASTSYADSVKGRFTISRDNAKNTVYLQMNSLKPEDTAVYFCAADQTPVGQVYYGTLSIRDYWGQGTQVTVSS”, which “polyreactivity (PSR sort gate)” value is on record?
The value was “low polyreactivity”.

With “QVQLVESGGGLVQAGGSLRLSCAASGSTFDYNAMGWYRQAPGTERELVAAISRGGNTYYADSVKGRFTISRDNAKNTVYLQMNSLKPEDTAVYYCAKDSYGSYRFVRKRQKAYGYWGQGTQVTVSS” as the sequence, how does the “polyreactivity (PSR sort gate)” value read?
The value was “low polyreactivity”.

Which “polyreactivity (PSR sort gate)” value does the source give for “QVQLVESGGGLVQAGGSLRLSCAASGSTFDYYAMGWDRQAPGKERELVAAIRWSSGRTYYADSVKGRFTISRDNAKNTVYLQMHSLKPEDTAVYYCASAGHRGQGGPRYNYWGQGTQVTVSS” here?
Its value is “high polyreactivity”.

For “QVQLVESGGGLVQAGGSLRLSCAASGSTFDYYAMGWYRQAPGKERELVAAISRTGGRTYYADSVKGRFTISRDNAKNTVYLQMNSLKPEDTAVYYCATRNGRQYSVSYRYYYWGQGTQVTVSS”, which “polyreactivity (PSR sort gate)” value is on record?
Its value is “low polyreactivity”.

With “QVQLVESGGGLVQAGGSLRLSCAASGSTFDYYAMGWYRQAPGKERELVATISYSDGTTYYADSVKGRFTISRDNAKNTVYLQMNSLKPEDTAVYYCAADTYVYEEQNVWRMDYWGQGTQVTVSS” as the sequence, how does the “polyreactivity (PSR sort gate)” value read?
The value was “low polyreactivity”.

With “QVQLVESGGGLVQAGGSLRLSCAASGSTFDYYAMGWYRQAPGKERELVAVISSSGGSTYYADSVKGRFTISRDNAKNTVYLQMNSLKPEDTAVYYCAALYRNYGSSYAYYYWGQGTQVTVSS” as the sequence, how does the “polyreactivity (PSR sort gate)” value read?
The value was “low polyreactivity”.

With “QVQLVESGGGLVQAGGSLRLSCAASGSTFDYYDMGWYRQAPGKERELVATITSGGSTNYADSVKGRFTISRDNAKNTVYLQMNSLKPEDTAVYYCAADIGGDGEGYDYWGQGTQVTVSS” as the sequence, how does the “polyreactivity (PSR sort gate)” value read?
The value was “low polyreactivity”.

With “QVQLVESGGGLVQAGGSLRLSCAASGSTFDYYTMGWYRQAPGKERELVAAISYSGSRTYYADSVKGRFTISRDNAKNTVYLQMNSLKPEDTAVYYCAAVYRAKYGYWGQGTQVTVSS” as the sequence, how does the “polyreactivity (PSR sort gate)” value read?
Its value is “high polyreactivity”.

Which “polyreactivity (PSR sort gate)” value does the source give for “QVQLVESGGGLVQAGGSLRLSCAASGSTFDYYTMGWYRQAPGKERELVAAITSGGSTYYADSVKGRFTISRDNAKNTVFLQMNSLKPEDTAVYYCAAGYIWFRKFQFDYWGQGTQVTVSS” here?
Its value is “high polyreactivity”.

Which “polyreactivity (PSR sort gate)” value does the source give for “QVQLVESGGGLVQAGGSLRLSCAASGSTFEANAMGRYRQAPGKERELVAVITWTGGSTYYADSVKGRFTISRDNAKNTVYLQMNSLKPEDTAVYYCAADGVVPGRFFWPAHEYDYWGQGTQVTVSS” here?
Its value is “low polyreactivity”.

With “QVQLVESGGGLVQAGGSLRLSCAASGSTFEANAMGWYRQAPGKERELVAVITWTGGSTYYADSVKGRFTISRDNAKNTVYLQMNSLKPEDTAVYYCAADGVVPGRFFWPAHEYDYWGQGTQVTVSS” as the sequence, how does the “polyreactivity (PSR sort gate)” value read?
Its value is “low polyreactivity”.

Which “polyreactivity (PSR sort gate)” value does the source give for “QVQLVESGGGLVQAGGSLRLSCAASGSTFEDNAMGWYRQAPGKERELVAAITTGGGSTYYADSVKGRFTISRDNAKNTVYLQMNSLKPEDTAVYYCAVYRYYGFSLWYDYWGQGTLVTVSS” here?
Its value is “low polyreactivity”.

For “QVQLVESGGGLVQAGGSLRLSCAASGSTFEFNDMGWYRQAPGKERELVASIRHSDGSTYYADSVKGRFTISRDNAKNTVYLQMNSLKPEDTAVYYCNKAFQWSGGQVSYDYWGQGTQVTVSS”, which “polyreactivity (PSR sort gate)” value is on record?
Its value is “low polyreactivity”.

For “QVQLVESGGGLVQAGGSLRLSCAASGSTFEQYAMGWYRQAPGKERELVAAINRGGSTYYADSVKGRFTISRDNAKNTVYLQMKSLKPEDTAVYYCAVYAFVRYRSRYGYWGQGTQVTVSS”, which “polyreactivity (PSR sort gate)” value is on record?
The value was “high polyreactivity”.

Which “polyreactivity (PSR sort gate)” value does the source give for “QVQLVESGGGLVQAGGSLRLSCAASGSTFERYAMGWYRQAPGKKGSWLPYADSVKGRFTISRDNAKNTVYLQMNSLKPEDTAVYYCNAERYSPTLNLDRGWEYDYWGQGTQVTVSS” here?
Its value is “low polyreactivity”.

For “QVQLVESGGGLVQAGGSLRLSCAASGSTFERYVMGWYSQAPGKARELVADINSGGSTNYADSVKGRFTISRDNAKNTVYLQMNSLKPEDTAVYYCAAKRRYYGPWSRMGYDYWGQGTQVTVSS”, which “polyreactivity (PSR sort gate)” value is on record?
The value was “low polyreactivity”.

With “QVQLVESGGGLVQAGGSLRLSCAASGSTFESNAMGWNRQAPGKERDLVASISGSGGSTFYADSVKGSFTISRDNAKNTVYLQMNILKPEDTGVYYCAAYKEPYYEEYGYWGQGTQVTVSS” as the sequence, how does the “polyreactivity (PSR sort gate)” value read?
Its value is “low polyreactivity”.

Which “polyreactivity (PSR sort gate)” value does the source give for “QVQLVESGGGLVQAGGSLRLSCAASGSTFESNAMGWYRQAPGKERELVAAISRGGNTYYADSVKGRFTISRDNAKNTVYLQMNSLKPEDTAVYYCAADGAGWLDYGYWGQGTQVTVSS” here?
Its value is “low polyreactivity”.

Which “polyreactivity (PSR sort gate)” value does the source give for “QVQLVESGGGLVQAGGSLRLSCAASGSTFESNTMGWYIQAPGKERELVAAISYSGGRTYYADSVKGRFTISRDNAKNTVYLQMNSLKPEDTAVYYCAARTFRISRMDYWGQGTQVTESS” here?
The value was “high polyreactivity”.

Which “polyreactivity (PSR sort gate)” value does the source give for “QVQLVESGGGLVQAGGSLRLSCAASGSTFESYAMVWYRQAPGKERELVAAISRRGGRTYYADSVKGRFTISRDNAKNTVYLQMNSLKPEDTAVYYCATDSSYYGSDDYWGQGTQVTVSS” here?
Its value is “high polyreactivity”.
